Reference: the supplement of paper PMC7877785
± gives the uncertainty stated by the source.

Assay: self-splicing fitness, log relative to wild type (ln ratio); higher = more splicing; Tetrahymena group I intron in knt gene, E. coli kanamycin selection, DiMSum; sequences stand for … in CUCUCU…GGAGGGAAAAGUUAUCAGGCAUGCACCUGGUAGCUAGUCUUUAAACCAAUAGAUUGCAUCGGUUUAAAAGGCAAGACCGUCAAAUUGCGGGAAAGGGGUCAACAGCCGUUCAGUACCAAGUCUCAGGGGAAACUUUGAGAUGGCCUUGCAAAGGGUAUGGUAAUAAGCUGACGGACAUGGUCCUAACCACGCAGCCAAGUCCUAAGUCAACAGAUCUUCUGUUGAUAUGGAUGCAGUUCACAGACUAAAUGUCGGUCGGGGAAGAUGUAUUCUUCUCAUAAGAUAUAGUCGGACCUCUCCUUAAUGGGAGCUAGCGGAUGAAGUGAUGCAACACUGGAGCCGCUGGGAACUAAUUUGUAUGCGAAAGUAUAUUGAUUAGUUUUGGAGUACUCGUGGUCG
Procedure, shortened: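 Colonies from six replicate transformations of E. coli BL21(DE3) were pooled and amplicon-sequenced on an Illumina HiSeq 2500. The library placed an intron with all eight P1ex-region nucleotides randomised inside the knt kanamycin-resistance gene on pET-22b(+), and cells grew overnight at 37°C or 30°C on LB agar with or without 25 μg/mL kanamycin (plus 100 μg/mL carbenicillin, 50 μM IPTG, 0.2% rhamnose). Fitness is the DiMSum error-weighted combination of wild-type-normalised replicate fold changes, kanamycin versus none.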

Sequence	self-splicing fitness (ln) (30 °C)	self-splicing fitness (ln) (37 °C)
CACCAGCAAUAUUACGUUCA	-3.07 ± 0.16	-2.15 ± 0.16
CACGAGCAAUAUUACGAUCA	-2.68 ± 0.22	-2.11 ± 0.19
CACGAGCAAUAUUACGAUGA	-3.21 ± 0.24	-2.17 ± 0.23
CACGAGCAAUAUUACGAUGC	-3.47 ± 0.37	-2.74 ± 0.29
CACGAGCAAUAUUACGCAAG	-2.4 ± 0.19	-0.867 ± 0.15
CACGAGCAAUAUUACGCACU	-2.87 ± 0.39	-1.61 ± 0.23
CACGAGCAAUAUUACGCCGC	-2.93 ± 0.35	-1.33 ± 0.48
CACGAGCAAUAUUACGCGUC	-3.19 ± 0.32	-1.52 ± 0.19
CACGAGCAAUAUUACGCUCU	-2.57 ± 0.18	-2.93 ± 0.28
CACGAGCAAUAUUACGGAGA	-3.38 ± 0.2	-2.85 ± 0.25
CACGAGCAAUAUUACGGCAC	-2.97 ± 0.23	-2.43 ± 0.25
CACGAGCAAUAUUACGGUAA		-2.37 ± 0.27
CACGAGCAAUAUUACGGUCU	-3.44 ± 0.19	-1.73 ± 0.16
CACGAGCAAUAUUACGUAAA		-1.83 ± 0.21
CACGAGCAAUAUUACGUACA	-3.75 ± 0.37	-2.49 ± 0.24
CACGAGCAAUAUUACGUACC	-2.54 ± 0.5	
CACGAGCAAUAUUACGUCAA	-2.34 ± 0.17	-2.13 ± 0.23
CACGAGCAAUAUUACGUCUA	-1.3 ± 0.32	-1.55 ± 0.27
CACGAGCAAUAUUACGUUAU	-3.4 ± 0.19	-3.62 ± 0.31
CACGAGCAAUAUUACGUUCU	-3.56 ± 0.2	-2.02 ± 0.26
CACUAGCAAUAUUACGAAAG	-1.23 ± 0.062	-0.136 ± 0.084
CACUAGCAAUAUUACGACCU	-2.03 ± 0.28	-1.6 ± 0.18
CACUAGCAAUAUUACGACGC	-2.52 ± 0.12	-1.02 ± 0.13
CACUAGCAAUAUUACGACGU	-2.27 ± 0.14	-1.8 ± 0.11
CACUAGCAAUAUUACGAGAU	-3.87 ± 0.39	-2.97 ± 0.2

Sequence	self-splicing fitness (ln) (30 °C)	self-splicing fitness (ln) (37 °C)
CACUAGCAAUAUUACGAUCG	0.531 ± 0.067	0.717 ± 0.071
CACUAGCAAUAUUACGAUUG	-0.641 ± 0.07	-0.457 ± 0.081
CACUAGCAAUAUUACGCAAA	-2.95 ± 0.21	-2.46 ± 0.27
CACUAGCAAUAUUACGCCAG	-1.1 ± 0.08	-0.0668 ± 0.11
CACUAGCAAUAUUACGCCCG	0.71 ± 0.13	0.619 ± 0.12
CACUAGCAAUAUUACGCCUU	-1.4 ± 0.27	-1.19 ± 0.16
CACUAGCAAUAUUACGCGGU	-4.59 ± 0.26	-3.62 ± 0.28
CACUAGCAAUAUUACGCGUG	-3.99 ± 0.21	-3.12 ± 0.25
CACUAGCAAUAUUACGCUGG	-4.08 ± 0.37	-1.87 ± 0.22
CACUAGCAAUAUUACGGAAU	-4 ± 0.27	-2.3 ± 0.32
CACUAGCAAUAUUACGGACC		-1.8 ± 0.24
CACUAGCAAUAUUACGGACG	0.105 ± 0.064	0.332 ± 0.08
CACUAGCAAUAUUACGGGAG	-1.54 ± 0.073	-0.152 ± 0.076
CACUAGCAAUAUUACGGGCC	-4.05 ± 0.25	-2.56 ± 0.22
CACUAGCAAUAUUACGUACG	-0.239 ± 0.071	0.494 ± 0.083
CACUAGCAAUAUUACGUCUA	-2.25 ± 0.23	-2.52 ± 0.29
CACUAGCAAUAUUACGUGCC	-4.04 ± 0.46	-2.17 ± 0.29
CACUAGCAAUAUUACGUUAA	-2.77 ± 0.2	-2.11 ± 0.23
CACUAGCAAUAUUACGUUAG	-3.34 ± 0.14	-2.92 ± 0.17
CACUAGCAAUAUUACGUUCC	-3.39 ± 0.17	-1.65 ± 0.17
CAGAAGCAAUAUUACGAAGC	-2.87 ± 0.31	
CAGAAGCAAUAUUACGAAUC		-1.93 ± 0.38
CAGAAGCAAUAUUACGACGU	-1.53 ± 0.12	-0.618 ± 0.12
CAGAAGCAAUAUUACGACUU	-0.506 ± 0.078	0.0901 ± 0.079
CAGAAGCAAUAUUACGAGCC	-3.03 ± 0.47	-1.82 ± 0.27

Sequence	self-splicing fitness (ln) (30 °C)	self-splicing fitness (ln) (37 °C)
CAGAAGCAAUAUUACGAGCU	-2.12 ± 0.18	-1.77 ± 0.2
CAGAAGCAAUAUUACGAGGC		-2.83 ± 0.4
CAGAAGCAAUAUUACGAUCG	-0.236 ± 0.078	0.167 ± 0.1
CAGAAGCAAUAUUACGCAGA	-2.59 ± 0.22	-2.55 ± 0.28
CAGAAGCAAUAUUACGCCCG	-0.995 ± 0.15	0.147 ± 0.16
CAGAAGCAAUAUUACGCUCU	-4.2 ± 0.24	-2.41 ± 0.17
CAGAAGCAAUAUUACGGAAU	-3.93 ± 0.2	-1.94 ± 0.18
CAGAAGCAAUAUUACGGAGA		-2.16 ± 0.24
CAGAAGCAAUAUUACGGCCU	-1.29 ± 0.13	-1.82 ± 0.23
CAGAAGCAAUAUUACGGGAC		-1.25 ± 0.35
CAGAAGCAAUAUUACGGUAA	-3.62 ± 0.25	-2.49 ± 0.18
CAGAAGCAAUAUUACGGUCA	-1.54 ± 0.13	-1.15 ± 0.097
CAGAAGCAAUAUUACGGUGC	-4.16 ± 0.24	-3.04 ± 0.18
CAGAAGCAAUAUUACGGUUC	-3.71 ± 0.19	-2.49 ± 0.2
CAGAAGCAAUAUUACGUCAG	-1.15 ± 0.056	-0.204 ± 0.078
CAGAAGCAAUAUUACGUCUA	-0.102 ± 0.07	0.782 ± 0.11
CAGAAGCAAUAUUACGUUCG	-0.642 ± 0.051	0.234 ± 0.064
CAGAAGCAAUAUUACGUUGG	-2.15 ± 0.11	-0.698 ± 0.1
CAGAAGCAAUAUUACGUUUG	-3.42 ± 0.19	-2.54 ± 0.2
CAGCAGCAAUAUUACGAGAC	-3.94 ± 0.36	-2.21 ± 0.26
CAGCAGCAAUAUUACGAGGU	-2.8 ± 0.16	-2.42 ± 0.21
CAGCAGCAAUAUUACGAUAA	-3.08 ± 0.14	-2.24 ± 0.13
CAGCAGCAAUAUUACGAUCG	-0.0679 ± 0.074	0.219 ± 0.094
CAGCAGCAAUAUUACGAUUU	-3.59 ± 0.17	-1.91 ± 0.15
CAGCAGCAAUAUUACGCAAC	-3.45 ± 0.28	-1.37 ± 0.25

Sequence	self-splicing fitness (ln) (30 °C)	self-splicing fitness (ln) (37 °C)
CAGCAGCAAUAUUACGCACG	-0.667 ± 0.09	-0.264 ± 0.1
CAGCAGCAAUAUUACGCAUU	-3.68 ± 0.15	-0.546 ± 0.089
CAGCAGCAAUAUUACGCGCC	-1.71 ± 0.25	-0.362 ± 0.22
CAGCAGCAAUAUUACGCGUC	-3.68 ± 0.17	-1.24 ± 0.13
CAGCAGCAAUAUUACGCUAA	-2.47 ± 0.2	-1.72 ± 0.13
CAGCAGCAAUAUUACGCUAC	-3.65 ± 0.38	-2.81 ± 0.38
CAGCAGCAAUAUUACGGAUG	-2.06 ± 0.097	-1.48 ± 0.098
CAGCAGCAAUAUUACGGGCG	0.0476 ± 0.064	0.363 ± 0.083
CAGCAGCAAUAUUACGGUCA	-2.45 ± 0.17	-1.22 ± 0.11
CAGCAGCAAUAUUACGGUCU	-2.87 ± 0.13	-0.712 ± 0.1
CAGCAGCAAUAUUACGGUUA	-0.417 ± 0.06	-0.163 ± 0.059
CAGCAGCAAUAUUACGUAGA	-2.13 ± 0.071	-1.57 ± 0.097
CAGCAGCAAUAUUACGUCAU	-4.22 ± 0.33	-2.77 ± 0.23
CAGCAGCAAUAUUACGUCCA	-2.61 ± 0.3	-0.781 ± 0.22
CAGCAGCAAUAUUACGUCGA	-1.73 ± 0.12	-1.25 ± 0.11
CAGCAGCAAUAUUACGUGCG	-1 ± 0.05	-0.378 ± 0.066
CAGCAGCAAUAUUACGUUCA	-2.17 ± 0.2	-0.173 ± 0.17
CAGCAGCAAUAUUACGUUCC		-2.13 ± 0.25
CAGGAGCAAUAUUACGAGGU	-2.48 ± 0.2	-2.84 ± 0.25
CAGGAGCAAUAUUACGCCCA	-2.13 ± 0.38	-1.18 ± 0.27
CAGGAGCAAUAUUACGCCGA	-1.75 ± 0.4	
CAGGAGCAAUAUUACGCCUU	-1.86 ± 0.24	-1.99 ± 0.33
CAGGAGCAAUAUUACGCGAG	-2.59 ± 0.23	-1.59 ± 0.16
